Source: the nanobody polyreactivity screen of Harvey et al. (2022)

Assay: yeast display, Sf9 membrane polyspecificity reagent, FACS + sequencing; frameworks hold sequencing errors
How it was run: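 Nanobodies came from a synthetic yeast display library in Saccharomyces cerevisiae BJ5465, induced with galactose for 36–48 hours and stained for 1 hour at 4 °C with 10% biotinylated, detergent-solubilized Sf9 membrane reagent. Cells were enriched on streptavidin microbeads and then FACS-sorted, with low and high (top ~1%) gates set on anti-HA fluorescence for expression and streptavidin fluorescence for reagent binding. Each polyreactivity label reflects the gate a clone came from. Genes were amplified by colony PCR, sequenced by MiSeq 2 × 250 and filtered by CDR length.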

| Sequence | polyreactivity (PSR sort gate) |
| --- | --- |
| QVQLVESGGGLVQAGGSLRLSCASSGRIFLYNAMGWYRQAPGKERELVAVISYGGGTYYADSVKGRFTISRDNAKNTVYLQMISLKPEDSAVYYCAAEKYSSSRYWPYNYWGQGTQVTVSS | high polyreactivity |
| QVQLVESGGGLVQAGGSLRLSCASSGRNFTRNTMGWYRQAPGKERELVAAISGRGGSTYYADSVKGRFTISRDNAMKTVYLQMNSLKPEDTAVDYCAADGVYRGGYDYWGQGTQVTVSS | high polyreactivity |
| QVQLVESGGGLVQAGGSLRLSCASSGRSLSVYAMGRYRQAPGKERDLVADITWRGGSTYYADSVKGRFTISRDNAKNTVYLQMNSLKPEDTAVYYCAAADSTWFDWGNYWYYYWGQGTQVSVSS | low polyreactivity |
| QVQLVESGGGLVQAGGSLRLSCASSGRTFLVNAMGSYRPAPGKERELVAAISQSGGSTYYADSVKGRFTISRDNAKNTVYLQMNCLKPVDTEVYYCAAELINDYYWGQGTQVSVSS | low polyreactivity |
| QVQLVESGGGLVQAGGSLRLSCASSGRTFRGYVMGWYRQAPGKERELVASISYSGGSTYYADSVKGRFTISRDNAKNTVYLQMNSLKPEDTAVYYCAARKGYDQYRWRYSQNNYWGQGTQVTVSS | high polyreactivity |
| QVQLVESGGGLVQAGGSLRLSCASSGRTFYYYAIGWYRQSPGKETELVAVIRSSGDSTYYADSVKGRFTISRDNAKNTVSLQMNSLKPEDNAVYYCAAEAPSRCYSWHPRYYFWGQGTQVTVSS | low polyreactivity |
| QVQLVESGGGLVQAGGSLRLSCASSGSIFFLYTMGWYRQAPGKERELVAAIDSGGSTNYADSVKGRFTISRDNAKNTVYLQMNSLKPEDTAVYYCNADGGYYYPYRGYHKYYYWGQGTQVTVSS | low polyreactivity |
| QVQLVESGGGLVQAGGSLRLSCASSGSIFYQNAMGWYRQAPGKEREFVAAIRSSGSSTYYADSVKGRFTISRDNAKNTVYLQMNSLKPEDTAVYYCAAPSSRGQGRNFDYWGQGSQVTVSS | high polyreactivity |
| QVQLVESGGGLVQAGGSLRLSCASSGSIFYRNTMGWYRQAPGKEREFVAAIRTSGGSTYYADSVKGRFTISRDNAKNTVYLQMNSLKPEDTAVYYCAAEYRYGWAYRKGGDYWGQGTQVTVSS | high polyreactivity |
| QVQLVESGGGLVQAGGSLRLSCASSGSIIVVYGMGWYRQAPGKERELVAAISGGITNYADSVKGRFTISRDNAMNTVYLQMNILIPEDTAVYYCATVDGAYQYTYDYWGQGTQVTVSS | low polyreactivity |
| QVQLVESGGGLVQAGGSLRLSCASSGSTFAYYVMGRYIHAPGKEWELVAAISRGGRTYYADSVKGRFTISRDNAKNTVYFQLNSLKPEDTAVYYCAAEGASLAKYDYCGQGTQVTVSS | low polyreactivity |
| QVQLVESGGGLVQAGGSLRLSCASSGSTFKRYAMGWYRQAPGKERELVAAITLSGGNTYYADSVKGRFTISRDTAKNTVYLQLNSLKPEDTAVYYCAARRYRGYDYWGQGTQVTVTS | high polyreactivity |
| QVQLVESGGGLVQAGGSLRLSCASSGSTFKYYAMGWYRQSPGKERELVAAISGTGGSTYYADSVKGRFTISRDNAKNTVYLQMNCLKPEDTAVYYCNTYPYIRYDYWGQGTQVTVSS | high polyreactivity |
| QVQLVESGGGLVQAGGSLRLSCASSGSTFPEYAMGWYRQAPGKERELVAVISFGDGNTYYADSVKGRFTISRDNAKNTVYLQMNSLKPEDTAVYYCNAADDSVDQSVRTLRQYEYWGQGTQVTVSS | low polyreactivity |
| QVQLVESGGGLVQAGGSLRLSCASSGSTFPSNAMGWYRQAPGKERELVAAISRSGGSTYYADSVKGRFTISRDTAKNTVYLQMNSLKPEDTAVYYCAVQVRPNSGGTRIHRCGYDYWGQGTQVTVSS | low polyreactivity |
| QVQLVESGGGLVQAGGSLRLSCASSGSTFRLYAMGWYRQAPGKERELVATISTSGGRTYYADSVKGRLTISRDNAKNTVYLQMNSLKPEDTAVYYCAAYRGTLLTAYDYWGQGTQVTVSS | low polyreactivity |
| QVQLVESGGGLVQAGGSLRLSCASSGSTFRRNAMGWYRQAPGKERELVAAITWRGTSTYYADSVKGRFTISRDNAKNTVYLQMNSLKPEDTAVYYCNAVYNPYTTYSLSAYDYWGQGTQVTVSS | high polyreactivity |
| QVQLVESGGGLVQAGGSLRLSCASSGSTFSYYAMGWYRQATGKERELVAGITTNGGRTFYADSVKGRFTISRDNAKNTVYLQMNSLKPEDTAVYYCNARHGRHRRTRSYYWGQGTQVTVSS | high polyreactivity |
| QVQLVESGGGLVQAGGSLRLSCASSGSTLEVNAMGWYRQAPGKERELVAAITSGCSTNYADSVKGRFTISRDNAKNTVYLQMNSLKPEDTAVYYCNALAYYGMDYWGQGTQVTVSS | low polyreactivity |
| QVQLVESGGGLVQAGGSLRLSCASSGYIFEKYAMGWYRQAPGKERELVAAITVTGASTYYADSVKGRFTISRDNAKNTVYLQMNSMNPEDTAVYYCAAKTLSVGYVDPDYGRDYWGQGTQVTVSS | low polyreactivity |
| QVQLVESGGGLVQAGGSLRLSCASSGYIIIIYAMGWYRQAPGKERELVAAINRRGGSTYYADSVKGRFTISRDNAKNTVYLQMNSLKREDTEVYYCNAYPYFSRGPHLYDYWGQGTQVTGSS | high polyreactivity |
| QVQLVESGGGLVQAGGSLRLSCASSVRTLAYNSRGCYRQATGKERELVASITSGGSTNYADSVKGRFTISRDNAKNTVYLQMNSLKPEDTAVYYCNKDGKYHRVLYDYWGQGTQVTVSS | low polyreactivity |

| Sequence | polyreactivity (PSR sort gate) |
| --- | --- |
| QVQLVESGGGLVQAGGSLRLSCASTGRIFDRNAMGWYRQAPGKVRELVAAISRRGGSTYYADSVKGRFTISRDNAKNNVYLQMNILKPEDTAVYYCNSGYSTRLHDYWGQGTQVTVSS | high polyreactivity |
| QVQLVESGGGLVQAGGSLRLSCASYGYIFWSYAMGWYRQAPGKERELVAAISASGGRTYYADSVKGRFTISRDNAKNTVYLQMNSLKPEDTAVYYCNADPGNHAYWYYGEFYYYTYDYWGQGTQVTVSS | low polyreactivity |
| QVQLVESGGGLVQAGGSLRLSCATSGRIFGTNAMGWYRQAPGKERELVADITSGGSTNYADSVKGRFTISRDNAKNTVYVQMNSLKPEDTAVYYCAADVIGDLRWYRDEYWGQGTQVTVSS | low polyreactivity |
| QVQLVESGGGLVQAGGSLRLSCAYSGLTFTWYAMGWYRQAPGKERELVAGISSGTSTNYADSVKGRFSISRDTAKNTVYLQMNSMKAEATAVYYCNAKQLGKFDYWGQGTHVTVSS | low polyreactivity |
| QVQLVESGGGLVQAGGSLRLSCCATGSIFYSYVMGWYRQAPGKEREWFAAISRNGQSTYYADSVKGRFTISLDNAKNTVYLQMNSLKPDDTAVYYCAARSRDKYDYWGQGTQVTVSS | high polyreactivity |
| QVQLVESGGGLVQAGGSLRLSCDASGFIFYGYVMGWYRQAPGKERELVAAITIGGSTNYADSVKGRFTISRDNAKNTVYLQRNSLKPEDTAVYYCAADQRSVTVGMDSWGQGTQVTVSS | low polyreactivity |
| QVQLVESGGGLVQAGGSLRLSCDASGFTFYGYAMGWYRQAPGKERELVAAISGNGARTYYADSVKGRFTISRDNAKNTVYLQMNSLKPEDTAVYYCNADPATWWRNKEDYWGQGTQVTVSS | high polyreactivity |
| QVQLVESGGGLVQAGGSLRLSCDASGFTFYYYTMGWYRQAPGKERELVAAITWRGGSTNYADSVKGRFTISRDNAKNTVYVQMNSLKPEDTAVYYCAAVTYWFWPGMDYWGQGTQVTVSS | low polyreactivity |
| QVQLVESGGGLVQAGGSLRLSCDASGFTVVIYTMGWYRQAPGKERELVAAINWSGASTYYADSVKGRFTISRDNAKNTVYLQINSLKPEDTAVYYCNRVYVQQDFPYKIYPYNYWGQGTQVTVSS | high polyreactivity |
| QVQLVESGGGLVQAGGSLRLSCDASGGIFRFNSMGWYRQAPGKERELVAGISSTYYADSVKGRFTISRDNAKNTVYLQMNSLKPEDTAVYYCAAAGPEEHGYTYPGNNQMESWGQGTQVTVSS | low polyreactivity |
| QVQLVESGGGLVQAGGSLRLSCDASGGTFYRNAMGWYRQAHGKERELVAVISKRGTSTYYADSVKGRFTISRDNAKNTVYLQMNSLKPEDTAVYYCATVYYHLSPNRPYGYWGQGTQVTLSS | high polyreactivity |
| QVQLVESGGGLVQAGGSLRLSCDASGITFVRYTIRWYRQAPGKEREFVAGITRGGSTYYADSVKGRFTISPDNAKNNVFLQRNSLKPEDTAVYYCAARPRFLRASVEYDYWGQGTQVTVSS | high polyreactivity |
| QVQLVESGGGLVQAGGSLRLSCDASGLIFYSYAMGWYRQAPGKERELVAAISSRGGSTYYADSVKGRFTISRDNAKNTVYLQMNSLKQEDSAVYYCNAYFLLPHYDYWGQGTQVTVSS | low polyreactivity |
| QVQLVESGGGLVQAGGSLRLSCDASGRIFGRYAMGSYRPAPGNDRELVAAIPRNGGSTYADSVKGRFTISRDNAKNTVYLQMNSLKPEDTAVYYCAARNSYRYSKYDYWGQGTQVTVSS | high polyreactivity |
| QVQLVESGGGLVQAGGSLRLSCDASGRIFGYYAMGWYRQAPGKERELVAAISDGGSTDYADSVKGRFTISRDNAKNTVYLQMNSLKPEDTAVYYCNADRLYLYNVEYDYWGQGTQVTVSS | low polyreactivity |
| QVQLVESGGGLVQAGGSLRLSCDASGRIFRANAMGWYRQAPGKERELVASISRGGSTNYADSVKGRFTISRDNAKNTVYLQMNRLKPEDTAVYYCAARLGFYPYGYTSWYTVYYWGQGTQVTVSS | low polyreactivity |
| QVQLVESGGGLVQAGGSLRLSCDASGRIFRYNSMGWYRQAPGKEREFVAAITWRGGSTYYADSVKGRFTISRDNAKYNVYFQMNSLKPEDTAVYYCATRSPFGAAYEYGYWGQGTQVTVSS | high polyreactivity |
| QVQLVESGGGLVQAGGSLRLSCDASGRNFRRNAMGWYRQAPGKERELVAAITGGGSTNYADSVKGRFTISRDNAKNTVYLQMNSLKPEDTAVYYCAARRYGVRTYRFDSWGQGTQVTVSS | high polyreactivity |
| QVQLVESGGGLVQAGGSLRLSCDASGRTCFKYAMGWYRQAPGKERELVATITSSGGITYADSVKGRFTISRDNAKNTVYLQMNSLKPEDTAVYYCNARVWVTHYSELNYWGQGTQVTVSS | low polyreactivity |
| QVQLVESGGGLVQAGGSLRLSCDASGRTFGQNAMGWYRQAPGKERELVAGIDWSCGNTYYADSVKGRFTISRDNAKNTVYLQMNSLKPEDTAVYYCNTEGGRDTDWYDYWGQGTQVTVSS | low polyreactivity |
| QVQLVESGGGLVQAGGSLRLSCDASGRTFYRNDMGWYRQAPGKERELVAAISSGGSTTYADSVKGRFTISRDNAKNTVYLQMNSLKPEDTAVYYCAADFLDYWGVYGWAEYEYWGQGTQVTVSS | low polyreactivity |
